Data as given in US7109303.

Columns and labels:
[1] = target: murine p55 receptor (on mouse L-M cells) (murine) (UniProt P25118); assay: cell-based or functional assay
[2] = target: TNF receptors (on L-M mouse fibroblasts); assay: cell-based or functional assay

Sequence of UniProt P25118 (P25118 30-454): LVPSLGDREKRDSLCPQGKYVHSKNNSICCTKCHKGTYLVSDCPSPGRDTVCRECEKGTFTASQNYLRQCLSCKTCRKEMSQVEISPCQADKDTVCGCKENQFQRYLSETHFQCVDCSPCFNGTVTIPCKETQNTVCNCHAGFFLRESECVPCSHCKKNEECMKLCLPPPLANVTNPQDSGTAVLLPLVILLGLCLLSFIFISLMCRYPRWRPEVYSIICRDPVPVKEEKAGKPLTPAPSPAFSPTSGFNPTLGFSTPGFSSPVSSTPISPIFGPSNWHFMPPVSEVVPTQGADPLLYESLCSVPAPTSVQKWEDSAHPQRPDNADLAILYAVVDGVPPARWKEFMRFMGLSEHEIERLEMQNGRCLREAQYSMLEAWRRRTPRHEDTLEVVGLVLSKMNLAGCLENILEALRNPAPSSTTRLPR

| in vitro cytolytic activity on mouse L-M cells [1] [units/mg] | Substance | in vitro cytotoxic activity, standard cytolytic assay with L-M cells [2] [units/mg] |
| --- | --- | --- |
| 6.11e+07 | human NGR-TNF (CNGRCG-TNF1-157), non-refolded (from UniProt P01375 1-233) |  |
| 5.09e+07 | human NGR-TNF (CNGRCG-TNF1-157), refolded (from UniProt P01375 1-233) |  |
|  | murine NGR-TNF (Cys-Asn-Gly-Arg-Cys-Gly-TNF1-156) (from UniProt P06804 80-235) | 1.8e+08 |
